# Measurements reported in US20240239915A1 (Zymeworks, published 2024).
# B1: LALA-DG variant of the anti-LPS antibody O11-1111 (IgG1) (antibody)
# heavy: QVQLVQSGAEVKKPGASVKVSCKASGYTFTSYWINWVRQAPGQGLEWMGNIYPGSSSINYNEKFKSRVTITADTSTSTAYMELSSLRSEDTAVYYCARTIYNYGSSGYNYAMDYWGQGTLVTVSSASTKGPSVFPLAPSSKSTSGGTAALGCLVKDYFPEPVTVSWNSGALTSGVHTFPAVLQSSGLYSLSSVVTVPSSSLGTQTYICNVNHKPSNTKVDKRVEPKSCDKTHTCPPCPAPEAAGGPSVFLFPPKPKDTLMISRTPEVTCVVVGVSHEDPEVKFNWYVDGVEVHNAKTKPREEQYNSTYRVVSVLTVLHQDWLNGKEYKCKVSNKALPAPIEKTISKAKGQPREPQVYTLPPSREEMTKNQVSLTCLVKGFYPSDIAVEWESNGQPENNYKTTPPVLDSDGSFFLYSKLTVDKSRWQQGNVFSCSVMHEALHNHYTQKSLSLSPGK
# light: DIVMTQSPDSLAVSLGERATINCKASENVGNSVSWYQQKPGQPPKLLIYGASNRYTGVPDRFSGSGSGTDFTLTISSLQAEDVAVYYCGQSYSYPYTFGQGTKVEIKRTVAAPSVFIFPPSDEQLKSGTASVVCLLNNFYPREAKVQWKVDNALQSGNSQESVTEQDSKDSTYSLSSTLTLSKADYEKHKVYACEVTHQGLSSPVTKSFNRGEC
# notes: substitutions in EU numbering; also called Anti-LPS Antibody LALA-DG
# B2: LALA-DG variant of the anti-CD70 antibody vorsetuzumab (IgG1) (antibody, name in EU numbering)
# heavy: QVQLVQSGAEVKKPGASVKVSCKASGYTFTNYGMNWVRQAPGQGLKWMGWINTYTGEPTYADAFKGRVTMTRDTSISTAYMELSRLRSDDTAVYYCARDYGDYGMDYWGQGTTVTVSSASTKGPSVFPLAPSSKSTSGGTAALGCLVKDYFPEPVTVSWNSGALTSGVHTFPAVLQSSGLYSLSSVVTVPSSSLGTQTYICNVNHKPSNTKVDKRVEPKSCDKTHTCPPCPAPEAAGGPSVFLFPPKPKDTLMISRTPEVTCVVVGVSHEDPEVKFNWYVDGVEVHNAKTKPREEQYNSTYRVVSVLTVLHQDWLNGKEYKCKVSNKALPAPIEKTISKAKGQPREPQVYTLPPSREEMTKNQVSLTCLVKGFYPSDIAVEWESNGQPENNYKTTPPVLDSDGSFFLYSKLTVDKSRWQQGNVFSCSVMHEALHNHYTQKSLSLSPGK
# light: DIVMTQSPDSLAVSLGERATINCRASKSVSTSGYSFMHWYQQKPGQPPKLLIYLASNLESGVPDRFSGSGSGTDFTLTISSLQAEDVAVYYCQHSREVPWTFGQGTKVEIKRTVAAPSVFIFPPSDEQLKSGTASVVCLLNNFYPREAKVQWKVDNALQSGNSQESVTEQDSKDSTYSLSSTLTLSKADYEKHKVYACEVTHQGLSSPVTKSFNRGEC
# notes: also called Anti-CD70 Antibody LALA-DG
# Columns and labels:
# [1] = molecular target: T1, Recombinant Human Fc gamma RI/CD64 Protein, CF (R&D Systems), His-tagged (human, UniProt P12314 16-288); assay: SPR (Biacore T200); His-tagged receptor captured on anti-His antibody chip, antibody as analyte at 4.7 µM; reference: LALA variant of the same antibody (anti-LPS O11-1111)
# T1 construct: also called human FcγRI; hFcγRI
# Experimental: (§1) The binding activity of an anti-EGFR antibody, into which known effectorless mutations were introduced, to human FcγRI (hFcγRI), was evaluated using Biacore™ T200 (Cytiva, Marlborough, MA). […] The noted mutations were introduced into both CH2 domains of the Fc region. […] The FcγRI ligand was captured on a sensor chip on which anti-His antibodies were immobilized. Various anti-EGFR antibodies as analytes were then added to the sensor chip to measure an interaction between the ligand and the analyte by surface plasmon resonance (SPR) method.
# (§2) Briefly, anti-6×His tag antibodies [AD1.1.10] (Abcam plc, Cambridge, UK) were immobilized on Sensor Chip CM5 (Cytiva, Marlborough, MA) according to the manufacturer's instructions, and then Recombinant Human Fc gamma RI/CD64 Protein (R & D Systems) prepared at 10 μg/mL in HBS-EP+ (GE Healthcare, Chicago, IL) was captured by contacting it with the sensor chip at 10 μL/min for 60 seconds.
# [2] = molecular target: T1, Recombinant Human Fc gamma RI/CD64 …; assay: SPR (Biacore T200), RU at 4.7 µM antibody, anti-LPS antibody O11-1111
# Experimental: as §1, §2
# [3] = molecular target: T2, Recombinant Human Fc gamma RIIB/C (CD32b/c) Protein (R&D Systems), His-tagged (human, UniProt P31994 46-217); assay: SPR (Biacore T200); receptor immobilized directly on CM5 chip, antibody as analyte at 4.7 µM
# T2 construct: also called human FcγRIIb/c; hFcγRIIb/c
# T2 sequence: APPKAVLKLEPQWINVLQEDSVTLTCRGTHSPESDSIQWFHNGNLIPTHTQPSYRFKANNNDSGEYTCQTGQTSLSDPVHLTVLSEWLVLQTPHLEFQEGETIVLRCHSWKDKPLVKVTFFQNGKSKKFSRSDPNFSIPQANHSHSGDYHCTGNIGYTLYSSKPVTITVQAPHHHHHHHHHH
# Experimental: (§3) After immobilizing human FcγR as a ligand directly on the sensor chip, various anti-EGFR antibodies as analysts were added to the sensor chip to measure an interaction between the ligand and the analysts by the SPR method.
# [4] = molecular target: T3, Recombinant Human Fc gamma RIIIB/CD16b Protein (R&D Systems), His-tagged (human, UniProt O75015 20-208); assay: as above
# T3 construct: also called human FcγRIIIb; hFcγRIIIb
# T3 chain: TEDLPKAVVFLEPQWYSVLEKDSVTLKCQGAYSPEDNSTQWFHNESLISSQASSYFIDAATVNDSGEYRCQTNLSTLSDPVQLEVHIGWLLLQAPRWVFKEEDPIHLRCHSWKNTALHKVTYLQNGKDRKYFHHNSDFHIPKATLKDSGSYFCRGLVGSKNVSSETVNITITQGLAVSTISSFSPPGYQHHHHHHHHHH
# Experimental: as §3
# [5] = molecular target: T4, Recombinant Human Fc gamma RIIIA/CD16a protein (R&D Systems), His-tagged (human, UniProt P08637 17-208); assay: as above
# T4 construct: also called human FcγRIIIa; hFcγRIIIa
# Experimental: as §3
# [6] = molecular target: T5, Recombinant Human Fc gamma RIIA/CD32a (R167) Protein (R&D Systems), His-tagged (human, UniProt P12318 36-218); assay: as above
# T5 construct: also called human FcγRIIa; hFcγRIIa
# T5 chain: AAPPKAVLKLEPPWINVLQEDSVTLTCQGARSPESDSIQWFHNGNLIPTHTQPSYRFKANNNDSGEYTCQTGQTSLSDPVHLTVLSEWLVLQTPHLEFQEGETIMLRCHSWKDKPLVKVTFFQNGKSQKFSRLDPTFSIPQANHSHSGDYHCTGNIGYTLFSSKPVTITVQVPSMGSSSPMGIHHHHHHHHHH
# Experimental: as §3
# [7] = molecular target: T1, Recombinant Human Fc gamma RI/CD64 …; assay: SPR (Biacore T200): His-tagged human FcγRI captured on an anti-His antibody chip, antibody as analyte; RU plotted against antibody concentration
# [8] = molecular target: T1, Recombinant Human Fc gamma RI/CD64 …; assay: SPR (Biacore T200), RU at 4.7 µM antibody, anti-CD70 antibody vorsetuzumab
# Experimental: The FcγRI ligand was captured on a sensor chip on which anti-His antibodies were immobilized. Various anti-EGFR antibodies as analytes were then added to the sensor chip to measure an interaction between the ligand and the analyte by surface plasmon resonance (SPR) method.
# Briefly, anti-6×His tag antibodies [AD1.1.10] (Abcam plc, Cambridge, UK) were immobilized on Sensor Chip CM5 (Cytiva, Marlborough, MA) according to the manufacturer's instructions, and then Recombinant Human Fc gamma RI/CD64 Protein (R & D Systems) prepared at 10 μg/mL in HBS-EP+ (GE Healthcare, Chicago, IL) was captured by contacting it with the sensor chip at 10 μL/min for 60 seconds. Then, the anti-EGFR antibody prepared at each of the given concentrations in HBS-EP+ was added to the sensor chip at a flow rate of 30 μL/min for 120 seconds.
# T1 sequence (P12314 other isoform, or with tags, fused parts or gaps): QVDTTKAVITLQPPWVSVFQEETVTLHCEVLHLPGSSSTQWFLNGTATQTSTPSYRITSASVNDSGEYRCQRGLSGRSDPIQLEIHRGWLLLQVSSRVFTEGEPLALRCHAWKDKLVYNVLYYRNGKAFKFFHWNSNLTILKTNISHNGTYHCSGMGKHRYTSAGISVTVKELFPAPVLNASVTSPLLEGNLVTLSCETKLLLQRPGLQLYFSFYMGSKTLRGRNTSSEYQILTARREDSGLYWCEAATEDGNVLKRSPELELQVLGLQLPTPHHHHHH
# T4 sequence (P08637 other isoform, or with tags, fused parts or gaps): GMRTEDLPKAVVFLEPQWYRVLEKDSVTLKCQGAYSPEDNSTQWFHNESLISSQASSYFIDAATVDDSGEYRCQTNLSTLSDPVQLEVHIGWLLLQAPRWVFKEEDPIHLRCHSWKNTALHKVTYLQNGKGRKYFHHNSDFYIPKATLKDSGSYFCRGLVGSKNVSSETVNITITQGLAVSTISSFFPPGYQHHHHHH
Binder,RU value relative to that of the LALA variant [1],RU value relative to the LALA variant [2],binding response (RU) [3],binding response (RU) [4],binding response (RU) [5],binding response (RU) [6],binding result [7],RU value relative to the LALA variant [8]
B1,~0.0033 ratio (LALA-DG RU / LALA RU),~0.0033 fold,-2.6 RU,-7.1 RU,-7.2 RU,-2.2 RU,,
B2,,,1.3 RU,-3.7 RU,-2.1 RU,,no binding (tested: 4.7 µM),~0.005 fold
